Among the data in publication PMC2737085 are percent decrease in binding against RPA values, retold here.

The assay has as its target RPA heterotrimer with the phosphomimetic Asp8-RPA2 subunit (UniProt P27694). Put plainly: co-IP.

In the case of “MRE11/RAD50/NBS1 (MRN) complex (from UniProt P49959 1-708; Q92878 1-1312; O60934 1-754)”, the percent decrease in binding against RPA was found to be 88%.
